Assay [1] concerns the target HBsAg (G145R) particles (hepatitis B virus). The assay is described as follows: Auszyme II EIA kit, S-antigenicity of purified particles.
Assay [2] addresses HBsAg particles (hepatitis B virus surface antigen L protein particles expressed in recombinant yeast carrying pGLDLIIP39-RcT) (hepatitis B virus). The assay is described as above.

Take “Auszyme II EIA kit (Dainabot Co. Ltd.) (antibody)”: the S-antigenicity turned out to be 0.2 in assay [1] and 1 in assay [2].

The record behind these values is patent publication US7597905.
